Experimental data taken from PMC11321683, “A Functional InDel in the WRKY10 Promoter Controls the Degree of Flesh Red Pigmentation in Apple”.

The binders below were run against MdWRKY10 (Malus domestica, UniProt D9ZJE9 1-528) (assay: EMSA; EMSA with LightShift chemiluminescent kit (Thermo) per manufacturer; buffer, pH and temperature not stated). Details: protein: recombinant; tags: His (pET-32a(+) vector); label: 3' biotin; blunt.
MdWRKY10, sequence (D9ZJE9 entry or part of it): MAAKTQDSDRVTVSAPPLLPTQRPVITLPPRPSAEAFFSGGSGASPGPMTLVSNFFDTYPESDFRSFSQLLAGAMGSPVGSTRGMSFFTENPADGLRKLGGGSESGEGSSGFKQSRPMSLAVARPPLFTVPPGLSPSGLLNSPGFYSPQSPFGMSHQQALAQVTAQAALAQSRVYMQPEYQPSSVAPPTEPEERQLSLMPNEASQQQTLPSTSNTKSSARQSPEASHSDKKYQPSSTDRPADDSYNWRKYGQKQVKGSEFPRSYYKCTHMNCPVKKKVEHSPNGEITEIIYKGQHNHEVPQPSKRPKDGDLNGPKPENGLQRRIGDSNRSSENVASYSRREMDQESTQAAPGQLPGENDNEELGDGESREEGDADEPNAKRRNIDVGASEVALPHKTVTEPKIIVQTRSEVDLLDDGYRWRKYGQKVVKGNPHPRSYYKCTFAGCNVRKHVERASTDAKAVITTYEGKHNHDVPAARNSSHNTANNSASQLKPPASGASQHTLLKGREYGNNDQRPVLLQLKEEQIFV

Row | Binder | binding result
1 | proMdF3'5'H W3 (dsDNA) DNA 1: TCACTCATATAGGTAAACTTTGTCAAGGATGTTCATGTAATTATAA DNA 2: TTATAATTACATGAACATCCTTGACAAAGTTTACCTATATGAGTGA | binds
2 | proMdF3'5'H W3 mutant (dsDNA) DNA 1: TCACTCATATAGGTAAACTTTGGAAAGGATGTTCATGTAATTATAA DNA 2: TTATAATTACATGAACATCCTTTCCAAAGTTTACCTATATGAGTGA | no binding
3 | proMdUFGT W5 (dsDNA) DNA 1: TTTTTTGCAACAAATTACCTTTGACTAACAAAACAAGGATATTTCT DNA 2: AGAAATATCCTTGTTTTGTTAGTCAAAGGTAATTTGTTGCAAAAAA | binds
4 | proMdUFGT W5 mutant (dsDNA) DNA 1: TTTTTTGCAACAAATTACCTTTTCCTAACAAAACAAGGATATTTCT DNA 2: AGAAATATCCTTGTTTTGTTAGGAAAAGGTAATTTGTTGCAAAAAA | no binding
5 | proMdMYB10 W2 (dsDNA) DNA 1: TGATAAAGGTATCTTATGGTGGTCAAAGATGTGTGTTGTAACTAGT DNA 2: ACTAGTTACAACACACATCTTTGACCACCATAAGATACCTTTATCA | binds
6 | proMdMYB10 W2 mutant (dsDNA) DNA 1: TGATAAAGGTATCTTATGGTGGGAAAAGATGTGTGTTGTAACTAGT DNA 2: ACTAGTTACAACACACATCTTTTCCCACCATAAGATACCTTTATCA | no binding
7 | proMdF3'5'H W2 (dsDNA) DNA 1: TAAATAGTATCTAACGAAAATTGACCGCACGATATACAATGAACGA DNA 2: TCGTTCATTGTATATCGTGCGGTCAATTTTCGTTAGATACTATTTA | binds
8 | proMdF3'5'H W2 mutant (dsDNA) DNA 1: TAAATAGTATCTAACGAAAATTTCCCGCACGATATACAATGAACGA DNA 2: TCGTTCATTGTATATCGTGCGGGAAATTTTCGTTAGATACTATTTA | no binding
